Measured values from the supplement of paper PMC7125110.
± gives the standard error. This sample holds only a part of the variants without activity.

B1: glmS ribozyme (parent)
chain: AUAAAAGCGCCAGAACUACAGAAAUGUAGUUGACGAGGAGGAGGUUUAUCGAAUUUUCGGCGGAUGCCUCCAAA

Tests used:
Details in all cases: with glucosamine-6-phosphate
[1] = variants of: B1; assay: self-cleavage kobs at 40 uM GlcN6P; higher = faster cleavage; RNA array
Summary of the method: (§1)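 A hybridised Cy3 probe tracked barcoded ribozyme variants, transcribed in situ by E. coli RNA polymerase on sequenced MiSeq chips, at 37 °C. The variants received 40 μM to 10 mM glucosamine-6-phosphate in HEPES/KCl/Mg(OAc)2 buffer. kobs came from decay fits and kcat and KM from weighted Michaelis–Menten fits.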

[2] = variants of: B1; assay: self-cleavage kobs at 160 uM GlcN6P; higher = faster cleavage; RNA array
Summary of the method: as §1

[3] = variants of: B1; assay: self-cleavage kobs at 640 uM GlcN6P; higher = faster cleavage; RNA array
Summary of the method: as §1

[4] = variants of: B1; assay: self-cleavage kobs at 2500 uM GlcN6P; higher = faster cleavage; RNA array
Summary of the method: as §1

[5] = variants of: B1; assay: self-cleavage kobs at 10000 uM GlcN6P; higher = faster cleavage; RNA array
Summary of the method: as §1

Variant	self-cleavage kobs at 40 uM GlcN6P [1]	self-cleavage kobs at 160 uM GlcN6P [2]	self-cleavage kobs at 640 uM GlcN6P [3]	self-cleavage kobs at 2500 uM GlcN6P [4]	self-cleavage kobs at 10000 uM GlcN6P [5]
G32C G62A	< 1e-05 s⁻¹	< 1e-05 s⁻¹	< 1e-05 s⁻¹	< 1e-05 s⁻¹	
U31A G62U	< 1e-05 s⁻¹	< 1e-05 s⁻¹	< 1e-05 s⁻¹		< 1e-05 s⁻¹
G32A A33U A39G C61G A64C C68A	< 1e-05 s⁻¹				< 1e-05 s⁻¹
G32U G40C C61U C67A	< 1e-05 s⁻¹				
A33G U46G G62C	< 1e-05 s⁻¹		< 1e-05 s⁻¹	< 1e-05 s⁻¹	
A33G C34U	< 1e-05 s⁻¹			< 1e-05 s⁻¹	
G32C G44A	< 1e-05 s⁻¹	< 1e-05 s⁻¹	< 1e-05 s⁻¹	< 1e-05 s⁻¹	< 1e-05 s⁻¹
C34G G40U G63C C68U	< 1e-05 s⁻¹				< 1e-05 s⁻¹
A33C G44C U45C	< 1e-05 s⁻¹		< 1e-05 s⁻¹		< 1e-05 s⁻¹
A33G C50U	< 1e-05 s⁻¹		< 1e-05 s⁻¹		< 1e-05 s⁻¹
U31A G32U A36U G59A	< 1e-05 s⁻¹				< 1e-05 s⁻¹
A33C G51C G63C A64U	< 1e-05 s⁻¹	< 1e-05 s⁻¹	< 1e-05 s⁻¹		< 1e-05 s⁻¹
G32A U47A	0.000103 ± 2.6e-05 s⁻¹	8.74e-05 ± 1.8e-05 s⁻¹		0.000897 ± 0.00019 s⁻¹	0.00237 ± 0.00046 s⁻¹
U31G G38C	< 1e-05 s⁻¹	< 1e-05 s⁻¹	< 1e-05 s⁻¹	< 1e-05 s⁻¹	
C34G A36U U46A A52G C71A	< 1e-05 s⁻¹	< 1e-05 s⁻¹	< 1e-05 s⁻¹		< 1e-05 s⁻¹
G32C U46C	< 1e-05 s⁻¹				
G32C U46A	< 1e-05 s⁻¹	< 1e-05 s⁻¹	< 1e-05 s⁻¹		
C34G G37C C61U U65A	< 1e-05 s⁻¹				< 1e-05 s⁻¹
A33C A39G G41C A53C	< 1e-05 s⁻¹	< 1e-05 s⁻¹	< 1e-05 s⁻¹	< 1e-05 s⁻¹	< 1e-05 s⁻¹
G32U U55G A64U	< 1e-05 s⁻¹				
U31C G41U C70G	0.000329 ± 7e-05 s⁻¹				0.00237 ± 0.00061 s⁻¹
A33U G38C G40C U65A C70G	< 1e-05 s⁻¹			< 1e-05 s⁻¹	< 1e-05 s⁻¹
A33G G63A	< 1e-05 s⁻¹	< 1e-05 s⁻¹			< 1e-05 s⁻¹
U31A C71G	4.17e-05 ± 1e-05 s⁻¹	0.000162 ± 3.4e-05 s⁻¹	0.000196 ± 3.4e-05 s⁻¹	0.000225 ± 4.8e-05 s⁻¹	0.000728 ± 0.00011 s⁻¹

Variant	self-cleavage kobs at 40 uM GlcN6P [1]	self-cleavage kobs at 160 uM GlcN6P [2]	self-cleavage kobs at 640 uM GlcN6P [3]	self-cleavage kobs at 2500 uM GlcN6P [4]	self-cleavage kobs at 10000 uM GlcN6P [5]
U31A C71U	0.000386 ± 3.4e-05 s⁻¹	0.000552 ± 0.0001 s⁻¹	0.00393 ± 0.00052 s⁻¹	0.00846 ± 0.0018 s⁻¹	0.0362 ± 0.0056 s⁻¹
A33U G43U C50G G51U	< 1e-05 s⁻¹				
G32C A48C G60C	< 1e-05 s⁻¹				
C34G A53C U69A	< 1e-05 s⁻¹				< 1e-05 s⁻¹
U31G A42U C50U C61G	< 1e-05 s⁻¹				< 1e-05 s⁻¹
U31C C34A C68U	< 1e-05 s⁻¹				< 1e-05 s⁻¹
U31G A33G	< 1e-05 s⁻¹		< 1e-05 s⁻¹		< 1e-05 s⁻¹
A33G A42U	< 1e-05 s⁻¹	< 1e-05 s⁻¹	< 1e-05 s⁻¹	< 1e-05 s⁻¹	< 1e-05 s⁻¹
C34G A53C	< 1e-05 s⁻¹	< 1e-05 s⁻¹	< 1e-05 s⁻¹	< 1e-05 s⁻¹	< 1e-05 s⁻¹
A33G U65A	< 1e-05 s⁻¹		< 1e-05 s⁻¹	< 1e-05 s⁻¹	< 1e-05 s⁻¹
A33G U56G	< 1e-05 s⁻¹		< 1e-05 s⁻¹		< 1e-05 s⁻¹
C34A C70G	< 1e-05 s⁻¹			< 1e-05 s⁻¹	
A33G A36U	< 1e-05 s⁻¹	< 1e-05 s⁻¹		< 1e-05 s⁻¹	< 1e-05 s⁻¹
G32C A53U G59C C71U	< 1e-05 s⁻¹		< 1e-05 s⁻¹		< 1e-05 s⁻¹
U31G G35C G44U U54A	< 1e-05 s⁻¹			< 1e-05 s⁻¹	< 1e-05 s⁻¹
U31C G44U	< 1e-05 s⁻¹	< 1e-05 s⁻¹			2.15e-05 ± 1e-05 s⁻¹
A33G A36G G51U	< 1e-05 s⁻¹				< 1e-05 s⁻¹
A33C C34A	< 1e-05 s⁻¹	< 1e-05 s⁻¹	< 1e-05 s⁻¹	< 1e-05 s⁻¹	< 1e-05 s⁻¹
U31C G44U U56C	< 1e-05 s⁻¹				
A33U G41A U46C	< 1e-05 s⁻¹				< 1e-05 s⁻¹
U31C G43U G66A	< 1e-05 s⁻¹				
C34A U54C C61G	< 1e-05 s⁻¹	< 1e-05 s⁻¹			
A33U C34A	< 1e-05 s⁻¹	< 1e-05 s⁻¹	< 1e-05 s⁻¹	< 1e-05 s⁻¹	< 1e-05 s⁻¹
G32C A36G	< 1e-05 s⁻¹	< 1e-05 s⁻¹	< 1e-05 s⁻¹	< 1e-05 s⁻¹	< 1e-05 s⁻¹

Variant	self-cleavage kobs at 40 uM GlcN6P [1]	self-cleavage kobs at 160 uM GlcN6P [2]	self-cleavage kobs at 640 uM GlcN6P [3]	self-cleavage kobs at 2500 uM GlcN6P [4]	self-cleavage kobs at 10000 uM GlcN6P [5]
C34A U65G	< 1e-05 s⁻¹	< 1e-05 s⁻¹	< 1e-05 s⁻¹	< 1e-05 s⁻¹	< 1e-05 s⁻¹
C34G A42C C71U	< 1e-05 s⁻¹			< 1e-05 s⁻¹	
A33G G60C C61U	< 1e-05 s⁻¹		< 1e-05 s⁻¹		< 1e-05 s⁻¹
U31A U47G C70U	0.000179 ± 3.9e-05 s⁻¹	0.000219 ± 4.3e-05 s⁻¹	0.000928 ± 0.00014 s⁻¹	0.000719 ± 0.00018 s⁻¹	0.00277 ± 0.00063 s⁻¹
U31C G38A U46G	< 1e-05 s⁻¹				
G32U G38C	< 1e-05 s⁻¹				
C34G C50G C68A C70U	8.07e-05 ± 2.3e-05 s⁻¹			0.000366 ± 0.00013 s⁻¹	5.45e-05 ± 1.1e-05 s⁻¹
U31A C50U	< 1e-05 s⁻¹	< 1e-05 s⁻¹			
A33G C68U	< 1e-05 s⁻¹				< 1e-05 s⁻¹
U31A G63A	< 1e-05 s⁻¹				< 1e-05 s⁻¹
U31A G63U	< 1e-05 s⁻¹	< 1e-05 s⁻¹	< 1e-05 s⁻¹	< 1e-05 s⁻¹	< 1e-05 s⁻¹
C34G G37U A39C A53U	< 1e-05 s⁻¹				
U31G C61U C67U	< 1e-05 s⁻¹		< 1e-05 s⁻¹		
G32A C50G U56G C70U	0.000356 ± 7.7e-05 s⁻¹				0.00032 ± 7.2e-05 s⁻¹
A33G G62A	< 1e-05 s⁻¹				< 1e-05 s⁻¹
A33G G62C	< 1e-05 s⁻¹		< 1e-05 s⁻¹	< 1e-05 s⁻¹	< 1e-05 s⁻¹
A33G C34G G35U G38U	< 1e-05 s⁻¹				< 1e-05 s⁻¹
A33G A52U	< 1e-05 s⁻¹		< 1e-05 s⁻¹		< 1e-05 s⁻¹
A33U G44U	< 1e-05 s⁻¹	< 1e-05 s⁻¹	< 1e-05 s⁻¹		< 1e-05 s⁻¹
C34A U47A	< 1e-05 s⁻¹				
U31C C34U G60U	< 1e-05 s⁻¹				< 1e-05 s⁻¹
U31A C34U C71U	< 1e-05 s⁻¹				
A33G C61G A64C	< 1e-05 s⁻¹				< 1e-05 s⁻¹
A33U A48C	< 1e-05 s⁻¹	< 1e-05 s⁻¹	< 1e-05 s⁻¹	< 1e-05 s⁻¹	< 1e-05 s⁻¹

Variant	self-cleavage kobs at 40 uM GlcN6P [1]	self-cleavage kobs at 160 uM GlcN6P [2]	self-cleavage kobs at 640 uM GlcN6P [3]	self-cleavage kobs at 2500 uM GlcN6P [4]	self-cleavage kobs at 10000 uM GlcN6P [5]
G32U C67U C70U	< 1e-05 s⁻¹				
A33U G38A G41C U54G	< 1e-05 s⁻¹				
U31A U45C A48U	< 1e-05 s⁻¹		< 1e-05 s⁻¹		
U30G G51C	< 1e-05 s⁻¹				
C34A U54A G62U G63U	< 1e-05 s⁻¹		< 1e-05 s⁻¹		< 1e-05 s⁻¹
G32U A48U C58U C68U	< 1e-05 s⁻¹				
U31G G32U	5.84e-05 ± 1e-05 s⁻¹		0.000363 ± 7.2e-05 s⁻¹	0.000925 ± 0.00026 s⁻¹	0.00232 ± 0.00036 s⁻¹
A33G U45A C71A	< 1e-05 s⁻¹				< 1e-05 s⁻¹
A33G U47G	< 1e-05 s⁻¹	< 1e-05 s⁻¹	< 1e-05 s⁻¹		< 1e-05 s⁻¹
G32C G38C G60C C67G	< 1e-05 s⁻¹		< 1e-05 s⁻¹		< 1e-05 s⁻¹
C34G G38U G40C C68A	< 1e-05 s⁻¹				< 1e-05 s⁻¹
C34A U57G G63C C71U	< 1e-05 s⁻¹		< 1e-05 s⁻¹	< 1e-05 s⁻¹	
U31A U45A G62U C68A	< 1e-05 s⁻¹				
U31C G41U U45G C70G	3.43e-05 ± 1.6e-05 s⁻¹				0.000585 ± 0.00013 s⁻¹
G32A G40U A42U G44C C67G	< 1e-05 s⁻¹				< 1e-05 s⁻¹
A33U G41A C50A A53C G60C	< 1e-05 s⁻¹				< 1e-05 s⁻¹
G32U A36G	< 1e-05 s⁻¹	< 1e-05 s⁻¹	< 1e-05 s⁻¹	< 1e-05 s⁻¹	< 1e-05 s⁻¹
A33C C67U	< 1e-05 s⁻¹	< 1e-05 s⁻¹	< 1e-05 s⁻¹		
A33C C67G	< 1e-05 s⁻¹	< 1e-05 s⁻¹			< 1e-05 s⁻¹
U30G U69C	0.000101 ± 2.9e-05 s⁻¹		0.00045 ± 0.00019 s⁻¹	6.49e-05 ± 3.1e-05 s⁻¹	0.000535 ± 0.00011 s⁻¹
G32A U54A C61G	< 1e-05 s⁻¹		< 1e-05 s⁻¹		< 1e-05 s⁻¹
G32C G43C A48G	< 1e-05 s⁻¹				
